The chains are these.
B1: acrylodan-labeled C-terminal domain of Aha1 (164-338) (domain or fragment)
chain: ILPTMNGESVDPVGQPALKTEERKAKPAPSKTQARPVGVKIPTCKITLKETFLTSPEELYRVFTTQELVQAFTHAPATLEADRGGKFHMVDGNVSGEFTDLVPEKHIVMKWRFKSWPEGHFATITLTFIDKNGETELCMEGRGIPAPEEERTRQGWQRYYFEGIKQTFGYGARLF
modifications: acrylodan (thiol-reactive probe on cysteine residues)
B2: human Hsp90β (natural protein)
chain: not shown

The target in the assay “human Hsp90β” is B2. As to the kind of experiment: other fluorescence titration.
For assay [1], the target named is B1. As to the kind of experiment: other fluorescence titration.

human Hsp90β, sequence (P08238 whole entry): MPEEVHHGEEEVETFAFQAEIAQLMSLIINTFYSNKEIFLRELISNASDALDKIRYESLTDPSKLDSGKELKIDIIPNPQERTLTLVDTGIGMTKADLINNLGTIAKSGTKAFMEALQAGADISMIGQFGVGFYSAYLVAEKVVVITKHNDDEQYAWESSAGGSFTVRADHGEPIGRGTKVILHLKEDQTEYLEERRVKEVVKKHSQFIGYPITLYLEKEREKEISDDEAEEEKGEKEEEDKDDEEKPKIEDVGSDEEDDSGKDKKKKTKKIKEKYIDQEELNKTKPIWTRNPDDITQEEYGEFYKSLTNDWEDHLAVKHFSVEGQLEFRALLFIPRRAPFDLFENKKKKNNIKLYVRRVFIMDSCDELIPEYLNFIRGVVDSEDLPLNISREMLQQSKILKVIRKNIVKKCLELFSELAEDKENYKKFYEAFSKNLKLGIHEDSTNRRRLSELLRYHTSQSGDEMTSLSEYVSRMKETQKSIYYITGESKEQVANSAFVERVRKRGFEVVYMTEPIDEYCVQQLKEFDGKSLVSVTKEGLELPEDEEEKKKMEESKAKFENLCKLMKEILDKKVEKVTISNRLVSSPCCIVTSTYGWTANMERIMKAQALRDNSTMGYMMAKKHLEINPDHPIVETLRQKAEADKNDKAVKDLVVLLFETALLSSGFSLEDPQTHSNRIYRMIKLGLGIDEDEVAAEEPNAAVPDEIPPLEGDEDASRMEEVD

In the case of B1, in the assay with human Hsp90β, the binding result is on record as “binds”. As for B2, the “fold increase in Kd with SEW04784 against without” value in assay [1] was found to be 2.5 fold.

Values taken from doi:10.1101/412908 (bioRxiv, 2018).
